In patent publication US20250243261A1:
Like-named read-outs stand apart in the source and are kept apart here.

Key:
[1] = target: HA H4 Hubei, A/swine/Hubei/06/2009(H4N1) (Influenza A virus)
[2] = target: HA H7 HK17, A/Hong Kong/125/2017(H7N9) (Influenza A virus)
[3] = target: HA H4 Hubei, A/swine/Hubei/06/2009(H4N1) (Influenza A virus); remark: listed apart in the source
[4] = target: HA H7 HK16, A/Hong Kong/61/2016(H7N9) (Influenza A virus)
[5] = target: HA H7 HK17, A/Hong Kong/125/2017(H7N9) (Influenza A virus); remark: listed apart in the source
[6] = target: HA H2 Japan, A/Japan/305/1957(H2N2) (Influenza A virus)
[7] = target: HA H5 Vietnam, A/Vietnam/1203/2004(H5N1) (Influenza A virus)
[8] = target: HA H7 HK17, A/Hong Kong/125/2017(H7N9) (Influenza A virus); remark: listed apart in the source
[9] = target: HA H7 HK16, A/Hong Kong/61/2016(H7N9) (Influenza A virus); remark: listed apart in the source

Substance | Kd [3] [nM] | Kd [4] [nM] | other results
MEDI8852 UCA VH K58S-V65P/VL G95P IgG (antibody) | – | – | Kd [1]: 30 nM; Kd [2]: 5.6 nM
MEDI8852 VH N74S Fab | 0.531 | 5.98 | –
MEDI8852 VH E65P Fab | 0.31 | 2.33 | Kd [5]: 0.1 nM; Kd [6]: < 0.001 nM; Kd [7]: < 0.001 nM
MEDI8852 VL G55A Fab | 0.512 | 5.11 | –
MEDI8852 VH S44G Fab | 0.596 | 7.03 | –
MEDI8852 VL T25A Fab | 1.45 | 16.8 | –
MEDI8852 VH E65R-M117Y Fab | 0.248 | 1.7 | Kd [5]: 0.02 nM; Kd [6]: < 0.001 nM; Kd [7]: < 0.001 nM; fold improvement in Kd vs wildtype [8]: 10 fold; fold improvement in Kd over wildtype [9]: 3.6 fold
MEDI8852 VL R92D Fab | – | 26.4 | –
MEDI8852 VH M117Y Fab | 0.356 | 4.07 | –
MEDI8852 VH D27F Fab | 0.9 | 9 | –
MEDI8852 VH P75R Fab | 0.779 | 7.14 | –
MEDI8852 UCA VH K58S-V65P IgG (antibody) | – | – | Kd [1]: 80 nM
MEDI8852 VH T53I Fab | 0.747 | 10.3 | –
MEDI8852 VL L29V Fab | 4.2 | 80 | –
MEDI8852 VH E65R Fab | 0.32 | 1.54 | Kd [5]: 0.036 nM; Kd [6]: < 0.001 nM; Kd [7]: < 0.001 nM
MEDI8852 VL G95P Fab | 0.802 | 5.31 | –
MEDI8852 VH I24V Fab | 0.87 | 8.58 | –
MEDI8852 VH E65P-M117Y Fab | 0.36 | 2.7 | Kd [5]: 0.043 nM
MEDI8852 VL T33L Fab | 3.2 | 41 | –
